Here are results for one substance from publication PMC8481097.

Holding throughout (assay): fluorescence polarisation
Assay [1] concerns the target TAMRA-labeled SARS-CoV-2 nsp1 R124A/K125A (SARS-CoV-2) (UniProt P0DTD1).
In assay [2] the target is TAMRA-labeled SARS-CoV-2 nsp1 R99A (SARS-CoV-2) (UniProt P0DTD1).
In assay [3] the target is TAMRA-labeled SARS-CoV-2 nsp1 C-K (wild type) (SARS-CoV-2) (UniProt P0DTD1).

Regarding “purified ribosomes (crude 80S from HeLa cell lysate) (complex)”, the fold increase in KD against WT nsp1 in assay [1] was 2.2 fold; in assay [2] it was 1.8 fold. The same substance gave a Kd in assay [3] of 29.4 nM.

One may read the Kd as the equilibrium constant for the complex coming apart. Lower therefore signals higher affinity.
